Measurements published in patent publication US10201282B2 (The Regents of the University of California, priority 2014, dated 2019).

Target: T1, TEV protease (Tobacco etch virus, UniProt P04517)
T1 construct: With co-expression of the TEV protease; expressed in transfected cells; host or cells: HEK293 / HEK293T
Assay: iTEV (EK) coiled-coil sensor in HEK293 cells without or with TEV protease
Type: cell-based
Description: HEK293 cells were transfected with the iTEV (EK) sensor without (top two panels) or with (bottom two panels) TEV protease.
For example, heterodimeric coiled coils were used to replace split GFP in iTEV (De Crescenzo, G., Litowski, J. R., Hodges, R. S. & O'Connor-McCourt, M. D. Real-Time Monitoring of the Interactions of Two-Stranded de NovoDesigned Coiled-Coils: Effect of Chain Length on the Kinetic and Thermodynamic Constants of Binding †. Biochemistry 42, 1754-1763 (2003)).

T1 sequence (P04517 2038-2279): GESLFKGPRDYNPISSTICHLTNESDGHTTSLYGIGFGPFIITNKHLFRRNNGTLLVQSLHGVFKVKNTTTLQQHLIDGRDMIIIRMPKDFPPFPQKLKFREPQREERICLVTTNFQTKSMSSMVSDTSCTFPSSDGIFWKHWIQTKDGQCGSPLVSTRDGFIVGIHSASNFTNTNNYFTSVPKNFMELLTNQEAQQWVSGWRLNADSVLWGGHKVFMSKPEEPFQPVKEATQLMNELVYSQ

B1: iTEV (EK) (protein)
chain: MGGSKVSALKEKVSALKEKVSALKEKVSALKEKVSALKEGGSGSTTNIAPALDGAFHRITSSSSLMGLCDETATIIREITGYDRVMVVRFDEEGNGEILSERRRADLEAFLGNRYPASTIPQIARRLYEHNRVRLLVDVNYTPVPLQPRISPLNGRDLDMSLSCLRSMSPIHQKYMQDMGVGATLVCSLMVSGRLWGLIACHHYEPRFVPFHIRAAGEALAETCAIRIATLESENLYFQSEFCEREQIHLAGSIQPHGILLAVKEPDNVVIQASINAAEFLNTNSVVGRPLRDLGGDLPLQILPHLNGPLHLAPMTLRCTVGSPPRRVDCTIHRPSNGGLIVELEPATKLEGGGSGGSEVSALEKEVSALEKEVSALEKEVSALEKEVSALEK
modifications: (Amino acid sequence of iTEV(+) 5.1)
TEV protease co-expressed
  infrared fluorescence: becomes infrared fluorescent
Without TEV protease
  infrared fluorescence: not infrared fluorescent
